“And” between values parts separate entries of the source, which are not always exact repeats. Identical values can stand only once.
B9: recombinant Human Fc gamma RI/CD64 Protein (R&D systems, 1257-FC-050) (receptor)
chain: QVDTTKAVITLQPPWVSVFQEETVTLHCEVLHLPGSSSTQWFLNGTATQTSTPSYRITSASVNDSGEYRCQRGLSGRSDPIQLEIHRGWLLLQVSSRVFTEGEPLALRCHAWKDKLVYNVLYYRNGKAFKFFHWNSNLTILKTNISHNGTYHCSGMGKHRYTSAGISVTVKELFPAPVLNASVTSPLLEGNLVTLSCETKLLLQRPGLQLYFSFYMGSKTLRGRNTSSEYQILTARREDSGLYWCEAATEDGNVLKRSPELELQVLGLQLPTP
notes: detected with an anti-His antibody; tag not described; also called FcγRI/CD64; human Fc gamma receptor I

Legend:
[1] = biological target: T1, recombinant biotinylated human FcRn (human, UniProt P55899 24-297; P61769 21-119, limits assumed, biotinylated); assay: AlphaLISA competition at pH 6; competitor: human IgG on acceptor beads
T1 construct: also called human neonatal Fc receptor (FcRn)
Method: The interaction of the unmodified and of conjugated anti-PD1 antibodies with the human neonatal Fc receptor (FcRn) at pH 6 was measured using the AlphaLISA® Human FcRn Binding Kit (AL3095C) from Perkin Elmer (Schwerzenbach, Switzerland).
After 90 min at 23° C. in the dark, AlphaLISA® signal was measured on an EnSpire plate reader (Excitation at 680 nm, Emission at 615 nm) from Perkin Elmer (Schwerzenbach, Switzerland). Binding Affinity of Reference Antibodies and Immunocytokines with the Human Neonatal Fc Receptor as Measured by AlphaLISA

[2] = biological target: T2, IL-18 receptor (IL-18Rα/IL-18Rβ) on cells (HEK-Blue IL18R reporter cells, NK-92, KG-1) (human, UniProt Q13478 19-541; O95256 20-599); assay: cell-based or functional assay
T2 sequence (looked up) 1: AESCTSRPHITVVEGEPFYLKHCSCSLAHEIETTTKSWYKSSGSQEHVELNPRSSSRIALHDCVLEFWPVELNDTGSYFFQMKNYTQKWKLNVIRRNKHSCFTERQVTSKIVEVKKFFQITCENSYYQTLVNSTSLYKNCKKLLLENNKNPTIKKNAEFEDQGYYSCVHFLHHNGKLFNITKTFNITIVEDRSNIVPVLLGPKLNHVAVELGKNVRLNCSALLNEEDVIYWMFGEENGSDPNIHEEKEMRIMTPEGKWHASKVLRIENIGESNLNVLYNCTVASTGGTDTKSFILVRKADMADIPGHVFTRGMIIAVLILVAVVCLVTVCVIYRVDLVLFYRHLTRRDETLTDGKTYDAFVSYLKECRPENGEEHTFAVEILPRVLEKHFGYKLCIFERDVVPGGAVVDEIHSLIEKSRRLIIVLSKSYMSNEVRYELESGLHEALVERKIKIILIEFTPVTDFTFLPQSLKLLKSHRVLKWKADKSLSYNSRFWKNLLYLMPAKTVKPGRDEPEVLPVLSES
T2 sequence (looked up) 2: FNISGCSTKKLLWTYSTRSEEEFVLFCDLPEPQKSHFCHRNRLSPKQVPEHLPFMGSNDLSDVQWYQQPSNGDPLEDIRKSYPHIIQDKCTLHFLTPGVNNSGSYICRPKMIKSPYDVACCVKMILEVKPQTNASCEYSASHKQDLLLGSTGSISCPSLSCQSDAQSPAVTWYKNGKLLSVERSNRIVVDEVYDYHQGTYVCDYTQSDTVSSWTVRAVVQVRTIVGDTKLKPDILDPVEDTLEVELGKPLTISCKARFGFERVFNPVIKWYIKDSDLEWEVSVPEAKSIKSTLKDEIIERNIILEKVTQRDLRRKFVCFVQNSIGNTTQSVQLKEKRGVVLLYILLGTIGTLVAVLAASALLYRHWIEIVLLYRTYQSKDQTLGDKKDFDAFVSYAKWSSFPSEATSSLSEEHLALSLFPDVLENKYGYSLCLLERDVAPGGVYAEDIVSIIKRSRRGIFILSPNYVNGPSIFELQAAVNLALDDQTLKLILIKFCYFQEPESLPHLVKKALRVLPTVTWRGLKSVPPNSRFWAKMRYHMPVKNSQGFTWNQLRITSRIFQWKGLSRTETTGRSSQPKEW

[3] = biological target: T2, IL-18 receptor (IL-18Rα/IL-18Rβ) on …; assay: cell-based or functional assay; remark: listed apart in the source
human IL-18BP-His = biological target: T3, human IL-18BP-His (human, UniProt O95998 31-194, limits assumed); assay: AlphaLISA of free IL-18BP
T3 construct: also called His-tagged human IL-18BP; not shown: His tag
T3 sequence (looked up): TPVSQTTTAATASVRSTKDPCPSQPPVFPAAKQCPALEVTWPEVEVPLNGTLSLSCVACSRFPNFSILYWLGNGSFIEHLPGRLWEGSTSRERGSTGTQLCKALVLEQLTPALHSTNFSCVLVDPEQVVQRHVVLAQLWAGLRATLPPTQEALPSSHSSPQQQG
Method: The plate is incubated further for 1 hr at room temperature. Under subdued light, 12.5 µL of 2× streptavidin (SA) donor beads are pipetted into each well, and the wells are incubated with shaking for an additional 30 min at room temperature. The AlphaLisa signal is then measured on an Enspire plate reader with 680 and 615 nm as excitation and emission wavelengths, respectively. The dissociation constant (K_D) is calculated based on a variable slope, four parameter analysis using GraphPad PRISM software.

[4] = biological target: T2, IL-18 receptor (IL-18Rα/IL-18Rβ) on …; assay: cell-based or functional assay; remark: listed apart in the source
[5] = biological target: B9; assay: ELISA; antibody coated, receptor titrated, anti-His-HRP
Method: (§1) The interaction of the unmodified and of conjugated antibodies with human Fc gamma receptors I (FcγRI/CD64), with human Fc gamma receptors IIa (FcγRIIa/CD32a), with inhibitory human Fc gamma receptors IIb (FcγRIIb/CD32b), and with human Fc gamma receptors III FcγRIIIa/CD16 were measured by ELISA.
(§2) Briefly, Corning high-binding half-area plates (Fisher Scientific, Reinach, Switzerland) were coated overnight at 4° C. with 25 μl of unmodified and of conjugated anti-PD1 antibodies at 2.5 μg/ml in PBS. Plates were then washed four times with 100 μl of PBS-0.02% Tween20. Plates surfaces were blocked with 25 μl of PBS-0.02% Tween20-1% BSA at 37° C. during 1 h. Plates were then washed four times with 100 μl of PBS-0.02% Tween20. Then twenty-five microliters of either recombinant Human Fc gamma RI/CD64 Protein (R&D systems, 1257-FC-050, CF), recombinant Human Fc gamma RIIA/CD32a (H167) Protein (R&D systems, 9595-CD-050, CF), recombinant Human Fc gamma RIIB/CD32b Avi-tag Protein (R&D systems, AVI1875-050, CF), or recombinant Human Fc gamma RIIIA/CD16a Protein (R&D systems, 4325-FC-050; CF) were added in five-fold serial dilutions ranging from 1000 nM to 0.001 nM into PBS-0.02% Tween20-0.1% BSA and incubated at 37° C. during 2 h. Plates were then washed four times with 100 μl of PBS-0.02% Tween20. Twenty-five microliters of a 1/500 HRP-anti-His antibody in PBS—0.02% Tween20-0.1% BSA (R&D systems, anti-HIS—HRP Ab, #MAB050H) were added to each well and plates were incubated at Room Temperature during 1 h. Plates were then washed four times with 100 μl of PBS-0.02% Tween20. Fifty microliters of TMB substrate reagent (#CL07, Merck, Buchs, Switzerland) were added to each well and incubated at 37° C. during 5 min. After 5 min at 37° C., Horseradish peroxidase reaction was stopped by adding 50 μl/well of 0.5M H2SO4 stop solution. ELISA signal was then measured at 450 nm on an EnSpire plate reader from Perkin Elmer (Schwerzenbach, Switzerland). Binding Affinity of Reference Antibodies and Immunocytokines with Human Fc Gamma Receptors as Measured by ELISA

[6] = biological target: T4, recombinant Human Fc gamma RIIIA/CD16a Protein (R&D systems, 4325-FC-050) (human, UniProt P08637 17-208); assay: as above
T4 construct: detected with an anti-His antibody; tag and allotype not described; also called FcγRIIIa (CD16)
Method: as §1, §2

[7] = biological target: T5, Composition B (Atezolizumab/Tecentriq conjugated to IL-18 polypeptide of SEQ ID NO: 30) (human, UniProt P0DOX5 2-449 = IgG part; P0DOX7 1-214; Q14116 37-193, chemical linker to the antibody; site not stated for this composition; chemical linker to IL-18; site not stated for this composition); assay: ELISA; immunocytokine coated, receptor titrated, anti-His-HRP
T5 construct: immunocytokine
Method: as §1
Briefly, Corning high-binding half-area plates (Fisher Scientific, Reinach, Switzerland) were coated overnight at 4° C. with 25 μl of unmodified and of conjugated anti-PD1 antibodies at 2.5 μg/ml in PBS. Plates were then washed four times with 100 μl of PBS-0.02% Tween20. Plates surfaces were blocked with 25 μl of PBS-0.02% Tween20-1% BSA at 37° C. during 1 h. Plates were then washed four times with 100 μl of PBS-0.02% Tween20. […] ELISA signal was then measured at 450 nm on an EnSpire plate reader from Perkin Elmer (Schwerzenbach, Switzerland). Binding Affinity of Reference Antibodies and Immunocytokines with Human Fc Gamma Receptors as Measured by ELISA

B1: Avelumab/Bavencio (antibody, human IgG1, lambda)
heavy: not shown
light: QSALTQPASVSGSPGQSITISCTGTSSDVGGYNYVSWYQQHPGKAPKLMIYDVSNRPSGVSNRFSGSKSGNTASLTISGLQAEDEADYYCSSYTSSSTRVFGTGTKVTVLGQPKANPTVTLFPPSSEELQANKATLVCLISDFYPGAVTVAWKADGSPVKAGVETTKPSKQSNNKYAASSYLSLTPEQWKSHRSYSCQVTHEGSTVEKTVAPTECS
notes: also called MSB-0010718C
Kd [1]: 5.36 nM

B2: IL-18 polypeptide of SEQ ID NO: 54 (E06K, K53A, C38S, C68S, C76S, C127S, K70C) (ligand)
chain: YFGKLKSKLSVIRNLNDQVLFIDQGNRPLFEDMTDSDSRDNAPRTIFIISMYADSQPRGMAVTISVKSECISTLSSENKIISFKEMNPPDNIKDTKSDIIFFQRSVPGHDNKMQFESSSYEGYFLASEKERDLFKLILKKEDELGDRSIMFTVQNED
EC50, HEK-Blue IL18R reporter cells [2]: 0.00912 nM
EC50, IFNγ stimulation, NK92 cells [3]: 0.962 nM
Kd (human IL-18BP-His): 446 nM

B3: Composition E (LZM-009 conjugated to IL-18 polypeptide of SEQ ID NO: 60) (other)
VH: QVQLVQSGAEVKKPGASVKVSCKASGYTFTSYYMYWVRQAPGQGLEWMGGVNPSNGGTNFNEKFKSRVTITADKSTSTAYMELSSLRSEDTAVYYCARRDYRYDMGFDYWGQGTTVTVSS
VL: EIVLTQSPATLSLSPGERATISCRASKGVSTSGYSYLHWYQQKPGQAPRLLIYLASYLESGVPARFSGSGSGTDFTLTISSLEPEDFATYYCQHSRELPLTFGTGTKVEIK
chain: YFGKLKSKLSVIRNLNDQVLFIDQGNRPLFEDMTDSDQRDNAPRTIFIISMYADSQPRGMAVTISVKCEKISTLSCENKIISFKEMNPPDNIKDTKSDIIFFQRSVPGHDNKMQFESSSYEGYFLACEKERDLFKLILKKEDELGDRSIMFTVQNED
modifications: chemical linker to the antibody; chemical linker to IL-18
EC50, IFNγ secretion, NK92 cells [4]: 0.056 nM

B4: IL-18 polypeptide of SEQ ID NO: 60 (E6K, C38Q, K53A) (ligand)
chain: YFGKLKSKLSVIRNLNDQVLFIDQGNRPLFEDMTDSDQRDNAPRTIFIISMYADSQPRGMAVTISVKCEKISTLSCENKIISFKEMNPPDNIKDTKSDIIFFQRSVPGHDNKMQFESSSYEGYFLACEKERDLFKLILKKEDELGDRSIMFTVQNED
EC50, IFNγ secretion, NK92 cells [4]: 0.008 nM
EC50, HEK-Blue IL18R reporter cells [2]: 0.000203 nM
EC50, IFNγ stimulation, NK92 cells [3]: 0.006 nM
Kd (human IL-18BP-His): 24.8 nM

B5: IL-18 polypeptide of SEQ ID NO: 57 (E6K, C38S, K53A) (ligand)
chain: YFGKLKSKLSVIRNLNDQVLFIDQGNRPLFEDMTDSDSRDNAPRTIFIISMYADSQPRGMAVTISVKCEKISTLSCENKIISFKEMNPPDNIKDTKSDIIFFQRSVPGHDNKMQFESSSYEGYFLACEKERDLFKLILKKEDELGDRSIMFTVQNED
EC50, HEK-Blue IL18R reporter cells [2]: 0.00086 nM and 0.00053 nM
EC50, IFNγ stimulation, NK92 cells [3]: 0.045 nM
Kd (human IL-18BP-His): 50.2 nM

B6: IL-18 polypeptide of SEQ ID NO: 59 (E6K, C38A, K53A) (ligand)
chain: YFGKLKSKLSVIRNLNDQVLFIDQGNRPLFEDMTDSDARDNAPRTIFIISMYADSQPRGMAVTISVKCEKISTLSCENKIISFKEMNPPDNIKDTKSDIIFFQRSVPGHDNKMQFESSSYEGYFLACEKERDLFKLILKKEDELGDRSIMFTVQNED
EC50, HEK-Blue IL18R reporter cells [2]: 0.000268 nM
EC50, IFNγ stimulation, NK92 cells [3]: 0.015 nM
Kd (human IL-18BP-His): 36 nM

B7: IL-18 polypeptide of SEQ ID NO: 62 (E6K, C38A, K53A, C127A) (ligand)
chain: YFGKLKSKLSVIRNLNDQVLFIDQGNRPLFEDMTDSDARDNAPRTIFIISMYADSQPRGMAVTISVKCEKISTLSCENKIISFKEMNPPDNIKDTKSDIIFFQRSVPGHDNKMQFESSSYEGYFLAAEKERDLFKLILKKEDELGDRSIMFTVQNED
EC50, HEK-Blue IL18R reporter cells [2]: 0.00017 nM
EC50, IFNγ stimulation, NK92 cells [3]: 0.026 nM
Kd (human IL-18BP-His): 69.6 nM

B8: Pembrolizumab/Keytruda (antibody, human IgG4 S228P, kappa)
heavy: not shown
light: EIVLTQSPATLSLSPGERATLSCRASKGVSTSGYSYLHWYQQKPGQAPRLLIYLASYLESGVPARFSGSGSGTDFTLTISSLEPEDFAVYYCQHSRDLPLTFGGGTKVEIKRTVAAPSVFIFPPSDEQLKSGTASVVCLLNNFYPREAKVQWKVDNALQSGNSQESVTEQDSKDSTYSLSSTLTLSKADYEKHKVYACEVTHQGLSSPVTKSFNRGEC
notes: also called Lambrolizumab; MK-3475
Kd [5]: 0.593 nM
Kd [6]: 1660 nM
Kd [1]: 7.45 nM

B9
Kd [7]: 10.8 nM
